Here are results for 2 molecules from publication PMC6826516.

The target in experiment [1] is T1, LgBiT-TEAD1-Myc (TEAD1 aa 194-411), mutant, P28347-1.
T1 chain: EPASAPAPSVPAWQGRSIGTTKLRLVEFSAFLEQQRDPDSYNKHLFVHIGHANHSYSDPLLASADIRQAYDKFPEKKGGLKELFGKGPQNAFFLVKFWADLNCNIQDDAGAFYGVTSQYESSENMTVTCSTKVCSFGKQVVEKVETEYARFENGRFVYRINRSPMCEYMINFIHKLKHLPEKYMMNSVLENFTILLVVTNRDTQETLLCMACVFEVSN
The experiment in a line: NanoBiT assay (split-luciferase biosensor) in lysates of transfected HEK293T cells. The following applies: chain shown with the change; 48 h after transfection; equal amounts of each biosensor plasmid; parent: est. 1300; read off a plot.

For experiment [2], the target named is T2, LgBiT-TEAD-His fusion protein (TEAD1 aa 194-411), mutant, P28347-1.
T2 chain: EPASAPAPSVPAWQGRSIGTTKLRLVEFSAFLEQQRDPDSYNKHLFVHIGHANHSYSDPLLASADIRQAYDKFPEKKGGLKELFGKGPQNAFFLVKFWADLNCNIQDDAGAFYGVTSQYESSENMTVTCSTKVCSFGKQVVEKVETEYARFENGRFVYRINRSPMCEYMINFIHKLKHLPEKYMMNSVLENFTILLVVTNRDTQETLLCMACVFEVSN
Nature of the experiment: NanoBiT assay (split-luciferase biosensor) with purified His-tagged fusion proteins in vitro. The conditions noted are these: chain shown with the change; 100 ng of each construct; mixed and incubated for 5 min before substrate; parent: est. 59; read off a plot.

B1: m5; m2 TAZ:W43A; TAZ:K46A; TAZ:L48A; TAZ:S51A; TAZ:F52A; TAZ:F53A; TEAD1:E255A; TEAD1:V257A; TEAD1:I262A (protein)
chain: PGQQVIHVTQDLDTDLEALFNSVMNPKPSSARKAIAPEAAAKEPDSGSHSRQSSTDSSGGHPGPRLAGGAQHVRSHSSPASLQLGTGAGAAGSPAQQHAHLRQQSYD
For B1, the response (fold over LgBiT-TEAD1 alone) in experiment [1] came to 19.

B2: m17; m14 TAZ:W43A; TAZ:K46A; TAZ:L48A; TAZ:S51A; TAZ:F52A; TAZ:F53A; TEAD1:E255A; TEAD1:V257A; TEAD1:I262A (protein)
chain: PGQQVIHVTQDLDTDLEALFNSVMNPKPSSARKAIAPEAAAKEPDSGSHSRQSSTDSSGGHPGPRLAGGAQHVRSHSSPASLQLGTGAGAAGSPAQQHAHLRQQSYD
On to B2, for which, in experiment [2], the response (fold over LgBiT-TEAD1 alone) is 12.
